From patent US20200109196A1 (MOGAM INSTITUTE FOR BIOMEDICAL RESEARCH, published 2020)

T1: recombinant human CEACAM1-N domain-Kappa protein (Mogam, in-house production) (human, UniProt P13688 35-142, limits assumed)
T1 construct: domain: N domain; In-house fusion; also called HCCM1-N domain-kappa; HCCM1-N-domain-kappa
T1 sequence (looked up): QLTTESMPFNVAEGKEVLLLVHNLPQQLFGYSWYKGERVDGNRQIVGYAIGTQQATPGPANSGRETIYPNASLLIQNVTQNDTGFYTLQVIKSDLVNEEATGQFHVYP

T2: recombinant human CEACAM-5/CD66e protein (R&D systems; Cat. No. 4128-CM) (human, UniProt P06731 35-685)
T2 construct: Bought protein; also called HCCM5
T2 sequence (looked up): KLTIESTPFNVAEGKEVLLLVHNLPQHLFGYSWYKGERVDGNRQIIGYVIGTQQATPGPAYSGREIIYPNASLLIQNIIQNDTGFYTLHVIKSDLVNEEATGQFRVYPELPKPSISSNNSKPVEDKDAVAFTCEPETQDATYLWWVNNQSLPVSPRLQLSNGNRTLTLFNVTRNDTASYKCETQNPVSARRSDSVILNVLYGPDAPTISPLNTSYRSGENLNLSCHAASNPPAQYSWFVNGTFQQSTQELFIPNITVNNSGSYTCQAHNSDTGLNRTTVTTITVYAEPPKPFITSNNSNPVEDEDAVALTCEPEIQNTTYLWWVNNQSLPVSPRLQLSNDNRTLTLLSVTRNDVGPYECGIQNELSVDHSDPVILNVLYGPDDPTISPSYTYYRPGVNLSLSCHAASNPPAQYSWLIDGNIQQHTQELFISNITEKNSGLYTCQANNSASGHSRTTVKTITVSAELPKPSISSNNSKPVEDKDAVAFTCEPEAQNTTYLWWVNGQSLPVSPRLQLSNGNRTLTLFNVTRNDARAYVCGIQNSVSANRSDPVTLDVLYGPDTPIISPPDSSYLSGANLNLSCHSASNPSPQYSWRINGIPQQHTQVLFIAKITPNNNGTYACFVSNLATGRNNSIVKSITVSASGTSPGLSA

T3: human CEACAM1 expressed on the cell surface (CEACAM1-Jurkat T cells); HEK293 cells transfected with human … (human, UniProt P13688 35-526)
T3 construct: whole, on cells; also called CCM1
T3 sequence (looked up): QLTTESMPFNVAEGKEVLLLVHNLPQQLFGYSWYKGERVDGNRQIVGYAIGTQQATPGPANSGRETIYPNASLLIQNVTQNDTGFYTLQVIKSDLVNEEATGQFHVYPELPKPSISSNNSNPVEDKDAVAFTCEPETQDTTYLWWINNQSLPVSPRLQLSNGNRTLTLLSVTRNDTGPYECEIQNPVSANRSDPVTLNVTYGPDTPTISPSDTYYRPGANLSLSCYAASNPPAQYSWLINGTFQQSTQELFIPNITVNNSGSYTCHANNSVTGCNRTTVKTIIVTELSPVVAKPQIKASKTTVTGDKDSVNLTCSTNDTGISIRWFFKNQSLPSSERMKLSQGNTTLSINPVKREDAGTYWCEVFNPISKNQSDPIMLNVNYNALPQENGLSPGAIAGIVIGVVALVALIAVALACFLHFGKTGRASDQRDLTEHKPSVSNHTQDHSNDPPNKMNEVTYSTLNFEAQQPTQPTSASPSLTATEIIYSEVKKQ

B1: C15 (antibody, human IgG4 S228P, lambda, V domains shown)
VH: EVQLLESGGGLVQPGGSLRLSCAASGFTFSSYSMSWVRQAPGKGLEWVSSISPNGGNKYYADSVKGRFTISRDNSKNTLYLQMNSLGAEDTAVYYCAKDPYNIYQPLFDYWGQGTLVTVSS
VL: QSVLTQPLSASGTPGQRVTISCSGSSSNIGNNYVNWYQQLPGTAPKLLIYANSNRPSGVPDRFSGSKSGTSASLAISGLRSEEEADYYCGTWDASLSAYVFGGGTKLTVLG
B2: C19 (antibody, human IgG4 S228P, lambda, V domains shown)
VH: EVQLLESGGGLVQPGGSLRLSCAASGFTFSGYAMSWVRQAPGKGLEWVSGIYHDGGSTYYADSVKGRFTISRDNSKNTLYLQMNSLRAEDTAVYYCARVTVLCTTYGCSSYDGMDVWGQGTLVTVSS
VL: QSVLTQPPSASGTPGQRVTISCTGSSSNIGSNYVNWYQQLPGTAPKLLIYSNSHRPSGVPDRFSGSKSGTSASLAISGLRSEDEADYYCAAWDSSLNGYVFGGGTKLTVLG
B3: C18 (antibody, human IgG4 S228P, lambda, V domains shown)
VH: EVQLLESGGGLVQPGGSLRLSCAASGFTFSNYDMSWVRQAPGKGLEWVSGISHSSGSKYYADSVKGRFTISRDNSKNTLYLQMNSLRAEDTAVYYCARDPLPCLIPKCSYYYAMDVWGQGTLVTVSS
VL: QSVLTQPPSAPGTPGQRVTISCSGSSSNIGSNAVTWYQQLPGTAPKLLIYADSHRPSGVPDRFSGSKSGTSASLAISGLRSEDEADYYCGSWDDSLNAYVFGGGTKLTVLG
B4: C22 (antibody, human IgG4 S228P, lambda, V domains shown)
VH: EVQLLESGGGLVQPGGSLRLSCAASGFTFSDYDMSWVRQAPGKGLEWVSMIYSGSSSKYYADSVKGRFTISRDNSKNTLYLQMNSLRAEDTAVYYCAKAPLPFYFRPKSYYYAMDVWGQGTLVTVSS
VL: QSVLTQPPSASGTPGQRVTISCSGSSSNIGSNNVTWYQQLPGTAPKLLIYANSHRPSGVPDRFSGSKSGTSASLAISGLRSEDEADYYCGSWDSSLNAYVFGGGTKLTVLG
B5: 4R9 (antibody, human IgG4 S228P, lambda, V domains shown)
VH: EVQLLESGGGLVQPGGSLRLSCAASGFTFSNYAMSWVRQAPGKGLEWVSVISHGGGSIYYADSVKGRLTISRDNSKNTLYLQMNSLRAEDTAVYYCARDPTKGYAPTFDYWGQGTLVTVSS
VL: QSVLTQPPSASGTPGQRVTISCSGSSSNIGNNYVSWYQQLPGTAPKLLIYADSRRPSGVPDRFSGSKSGTSASLAISGLRSEDEADYYCGAWDLSLNGYVFGGGTKLTVLG
notes: also called C25-derived clone 4R9
B6: C25 (antibody, human IgG4 S228P, lambda, V domains shown)
VH: EVQLLESGGGLVQPGGSLRLSCAASGFTFSNYAMSWVRQAPGKGLEWVSVISHGGGSIYYADSVKGRLTISRDNSKNTLYLQMNSLRAEDTAVYYCARDPTKGYAPTFDYWGQGTLVTVSS
VL: QSVLTQPPSASGTPGQRVTISCSGSSSNIGNNYVSWYQQLPGTAPKLLIYADSKRPSGVPDRFSGSKSGTSASLAISGLRSEDEADYYCGAWDASLNGYVFGGGTKLTVLG
notes: Made in ExpiHEK293F cells, protein A purified. huIgG4 is the isotype control and anti-huIgG4 the detection reagent; the isotype is not otherwise stated; also called anti-CEACAM1 antibody C25
B7: C17 (antibody, human IgG4 S228P, lambda, V domains shown)
VH: EVQLLESGGGLVQPGGSLRLSCAASGFTFSDYSMSWVRQAPGKGLEWVSVIYPDDGNTYYADSVKGRFTISRDNSKNTLYLQMNSLRAEDTAVYYCARGSIWWLSLIPSSYNAMDVWGQGTLVAVSS
VL: QSVLTQPPSASGTPGQRVTISCSGSSSNIGNNAVNWYQQLPGTAPKLLIYANSHRPSGVPDRFSGSKSGTSASLAISGLRSEDEADYYCGAWDASLNGYVFGGGTKLTVLG
B8: 4R9_H4-n20 (antibody, human IgG4 S228P, lambda, V domains shown)
VH: EVQLLESGGGLVQPGGSLRLSCAASGFNFSNYAMSWVRQAPGKGLEWVSVISHGGGSIYYADSVKGRLTISRDNSKNTLYLQMNSLRAEDTAVYYCARDPTKGYAPTFDYWGQGTLVTVSS
VL: QSVLTQPPSASGTPGQRVTISCSGSSSNIGNNYVSWYQQLPGTAPKLLIYADSRRPSGVPDRFSGSKSGTSASLAISGLRSEDEADYYCGAWDLSLNGYVFGGGTKLTVLG
notes: also called C25-derived clone 4R9_H4-n20
B9: 4R26 (antibody, human IgG4 S228P, lambda, V domains shown)
VH: EVQLLESGGGLVQPGGSLRLSCAASGFTFSNYAMSWVRQAPGKGLEWVSVISHGGGSIYYADSVKGRLTISRDNSKNTLYLQMNSLRAEDTAVYYCARDPTKGYAPTFDYWGQGTLVTVSS
VL: QSVLTQPPSASGTPGQRVTISCSGSSSNIGNNYVSWYQQLPGTAPKLLIYADSKRLSGVPDRFSGSKSGTSASLAISGLRSEDEADYYCGAWDGRLNGYVFGGGTKLTVLG
notes: also called C25-derived clone 4R26
B10: 4R9_H2-2 (antibody, human IgG4 S228P, lambda, V domains shown)
VH: EVQLLESGGGLVQPGGSLRLSCAASGFTFSNYAMSWVRQAPGKGLEWVSVISHGGGSIYYADSVKGRLTISRDNSKNTLYLQMNSLRAEDTAVYYCARDPTKGYAPLFDYWGQGTLVTVSS
VL: QSVLTQPPSASGTPGQRVTISCSGSSSNIGNNYVSWYQQLPGTAPKLLIYADSRRPSGVPDRFSGSKSGTSASLAISGLRSEDEADYYCGAWDLSLNGYVFGGGTKLTVLG
notes: also called C25-derived clone 4R9_H2-2

How the values were obtained:
[1] = biological target: T1, recombinant human CEACAM1-N …; assay: ELISA on coated antigen (0.25 µg/ml), antibody 3 µg/ml, HRP anti-human IgG Fc, OD450
Text: (§1) All of the recombinant human CEACAM-1/CD66a protein (R&D systems; Cat No. 2244-CM, HCCM1), recombinant human CEACAM-5/CD66e protein (R&D systems; Cat. No. 4128-CM, HCCM5), recombinant human CEACAM-6/CD66c protein (R&D systems; Cat. No. 3934-CM, HCCM6), recombinant human CEACAM-3/CD66d protein (Sino Biological; Cat. No. 11933-H08H, HCCM3), human B7-H5/Gi24/VISTA protein (Sino Biological; Cat. No. 13482-H08H, HVISTA), recombinant human CEACAM-1/CD66a protein Bulk (R&D systems; Cat. No. 2244-CM, HCCM1 (bulk)), recombinant human CEACAM1-N domain-Kappa protein (Mogam, in-house production, HCCM1-N domain-kappa), and BSA protein (2.5 μg each) were dissolved in 10 ml of PBS, respectively, and dispensed into a 96-well plate at 100 μl/well, which was incubated at 4° C. overnight. Thereafter, each well was treated with 300 μl of 1% (v/v) bovine serum albumin, and incubated at 37° C. for 1 hour.
(§2) The diluted antibodies were dispensed into each well coated with each protein at 100 μl/well, and incubated at 37° C. for 1 hour. Then, each well was washed 3 times with a washing buffer prepared by diluting 10 μl of Tween 20 (Sigma-Aldrich; Cat. No. P9146) in 990 μl of PBS. Thereafter, 2 μl of HRP-conjugated human anti-IgG-Fc antibody (anti-human IgG Fc, Sigma Cat. No. A0170) was diluted in 10 ml of PBS, added to the wells at 100 μl/well, and incubated for 1 hour.
(§3) After completion of the reaction, the wells were washed three times with the washing buffer, and 100 μl of TMB solution was added to each well to induce color development. Then, 100 μl of 2 M H₂SO₄ was added to each well to stop the reaction, and the absorbance was measured at a wavelength of 450 nm.

[2] = biological target: T2, recombinant human CEACAM-5/CD66e …; assay: as above
Text: as §1, §2, §3

[3] = biological target: T3, human CEACAM1 expressed on the cell …; assay: flow cytometry on CEACAM1-Jurkat T cells, PE goat anti-human F(ab)2, MFI [b]
Method: The CEACAM1-Jurkat T cells prepared above were treated with Fc block solution and incubated for 15 minutes. […] Herein, it is noted that the cell numbers were adjusted to 1×10⁵. The cells incubated with the antibodies were repeatedly subjected to the washing procedure of resuspending the cells in a FACS buffer and centrifuging the solution at 1,500 rpm.
PE-conjugated goat anti-human F(ab)₂; (Sigma; Cat. No. P8047)) was diluted in the FACS buffer at a volume ratio of 1:200, and then added to the cells at 100 μl/well. Cells were resuspended well and incubated at 4° C. for 30 minutes in a dark condition.
The cells incubated with the fixation buffer were repeatedly subjected to the washing procedure of resuspending the cells in a FACS buffer, centrifuging the solution at 1,500 rpm, and discarding the supernatant. The washed cells were resuspended in 200 μl of a FACS buffer, and the mean fluorescence intensities (MFIs) of the PE-labeled cells were monitored by a FACS LSR-Fortessa. All FACS analyses were conducted using the FlowJo software.

Binder | binding result [1] | binding result [2] | EC50 (read off the curve) [3] [µg/mL]
B1 | binds |  | 
B2 | binds | binds | 
B3 | binds |  | 
B4 | binds | binds | 
B5 |  |  | ~0.05
B6 |  |  | ~0.6
B7 | binds | binds | 
B8 |  |  | ~0.4
B9 |  |  | ~0.08
B10 |  |  | ~0.04
